{"source": "paper PMC8158265", "about": "“Inhibition of catechol-O-methyltransferase by natural pentacyclic triterpenes: structure–activity relationships and kinetic mechanism” (Journal of Enzyme Inhibition and Medicinal Chemistry, 2021)", "proteins": {"B1": {"name": "recombinant human S-COMT (Homo sapiens) (protein)", "chain": "MGDTKEQRILNHVLQHAEPGNAQSVLEAIDTYCEQKEWAMNVGDKKGKIVDAVIQEHQPSVLLELGAYCGYSAVRMARLLSPGARLITIEINPDCAAITQRMVDFAGVKDKVTLVVGASQDIIPQLKKKYDVDTLDMVFLDHWKDRYLPDTLLLEECGLLRKGTVLLADNVICPGAPDFLAHVRGSSCFECTHYQSFLEYREVVDGLEKAIYKGPGSEAGP", "notes": "made in house"}}, "substrate": "O=c1oc2c(O)c(O)ccc2cc1-c1nc2ccccc2s1", "assay": "Inhibition kinetics of human S-COMT catalysed O-methylation of 3-BTD", "assay_type": "biochemical", "settings": "other: 3-BTD as substrate, no inhibitor; pH 7.4; 37.0 °C"}
{"protein": "B1", "values": [{"measurement": "Km", "value": "0.38 ± 0.029", "unit": "µM"}, {"measurement": "Vmax", "value": "13.8 ± 0.30", "unit": "nmol/min/mg protein"}]}
